Results reported in US7419813B2, “Fructosyl peptide oxidase” (Kikkoman Corporation, priority 2001, dated 2008).

B1: Eupenicillium terrenum ATCC 18547: fructosyl peptide oxidase produced by Eupenicillium terrenum ATCC 18547 with less action on ε-fructosyl lysine; amino acid sequence SEQ ID NO: 3 (protein, listed as Eupenicillium terrenum)
chain: MAHSRASTKVVVVGGGGTIGSSTALHLIRSGYTPSNITVLDVYKTPSLQSAGHDLNKIMGIRLRNGPDLQLSLESLDMWQNDELFKPFFHQVGMIDCSSSKEGIENLRRKYQTLLDAGIGLEKTNVWLESEDEILAKAPNFTREQVKGWKGLFCTDGGWLAAAKAINAIGIFLQDKGVKFGFGGAGTFQQPLFAADGKTCIGLETTDGTKYFADKVVLAAGAWSPTLVDLEDQCVSKAWVFAHIQLTPKEADAYKNVPVVYDGEYGFFFEPNEYGVIKVCDEFPGFSRFKLHQPYGAASPKMISVPRSHAKHPTDTYPDASEVTIRKAIARFLPEFKDKELFNRTMCWCTDTADANLLICEHPKWKNFILATGDSGHSFKLLPNIGKHVVELLEGSLSQEMAGAWRWRPGGDALRSRRGAPAKDLAEMPGWKHDAHL
B2: Coniochaeta sp. NISL 9330: fructosyl peptide oxidase produced by Coniochaeta sp. NISL 9330 (FERM BP-7798) with less action on ε-fructosyl lysine; amino acid sequence SEQ ID NO: 1 (protein, listed as Coniochaeta sp.)
chain: MTSNRADTRVIVVGGGGTIGSSTALHLVRSGYAPANITVLDTFEIPSAQSAGHDLNKIMGIRLRNKVDLQMSLEARQMWKEDELFQPFFHNTGRMDCEHTPEGIEDLKKQYQALHDAGAGLEKTHAWLDNEDEILSKMPLLQRDQIQGWKAIWSQDGGWLAAAKAINAIGQFLKERGVKFGFGGAGSFKQPLFDDEGTTCIGVETADGTKYYADKVVLAAGAWSPTLVDLEDQCCSKAWVYAHIQLTPEEAAEYKGVPVVYNGEFGFFFEPNEFGVIKVCDEFPGFSRFKEHQPYGAPSPKHISVPRSHAKHPTDTYPDASEVSIKKAIATFLPRFQDKELFNRALCWCTDTADAALLMCEHPKWKNFILATGDSGHSFKILPNVGKHVVELIEGRLPEEMAYQWRWRPGGDALKSRRAAPPKDLADMPGWKHDPKL

Key:
Format in all cases: biochemical
[1] = Identifying reaction product by HPLC (TSK gel Amide-80); conditions: 2 mM fructosyl valyl histidine, 0.003U oxidase, 37° C. for 2 hours
Experimental: Reaction solution was assayed by HPLC to identify reaction products. First, 50 μl of reaction solution (2 mM fructosyl valyl histidine, 5 mM phosphate buffer (pH 8.0), 0.003U of the inventive oxidase) was incubated at 37° C. for 2 hours, diluted (10×) and then assayed for the reaction products in a TSK gel Amide-80 column (available from Tosoh Co., Ltd.). As a control, the same procedure was repeated except for using a buffer instead of the enzyme.
Reaction solution was assayed by HPLC to identify reaction products. First, 50 μl of reaction solution (2 mM fructosyl valyl histidine, 5 mM phosphate buffer (pH 8.0), 0.003U of the inventive oxidase) was incubated at 37° C. for 2 hours, diluted (10×) and then assayed for the reaction products in a TSK gel Amide-80 column (available from Tosoh Co., Ltd.). Similarly, a control sample was obtained by using a buffer instead of the enzyme and assayed.

[2] = Enzyme activity assay (hydrogen peroxide, POD-4-AA colour at 510 nm), fructosyl valyl histidine substrate; conditions: for Activity per medium / Substrate specificity (% relative activity) FVH: crude enzyme sample; for action on fructosyl valyl histidine and ε-fructosyl lysine (in words): crude enzyme samples of Tables 1 and 2
From the text: Enzyme activities of the oxidase of the invention and the oxidase of the invention that have less action on ε-fructosyl lysine (hereinafter, the term “the oxidases of the invention” may comprise both the oxidase of the invention and the oxidase of the invention that have less action on ε-fructosyl lysine) may principally be determined by determining the amount of α-ketoaldehyde, peptide, hydrogen peroxide or the like which are produced through enzyme reaction or by determining the amount of oxygen consumed by the enzyme reaction. Hereinafter, a method for determining the amount of hydrogen peroxide will be described as one example. Unless otherwise noted, fructosyl valyl histidine is used as a substrate for determining the activities of the oxidases of the invention. Titer of the enzyme is defined such that an amount of enzyme for producing 1 μmol hydrogen peroxide per minute is 1U as determined using a fructosyl valyl histidine substrate. 1.0 kU of peroxidase (Toyobo Co., Ltd, TYPE III) and 100 mg of 4-aminoantipyrine (Tokyo Kasei Kogyo Co., Ltd.) are dissolved in 0.1 M potassium phosphate buffer (pH 8.0) to a constant volume of 1L. 25 ml of a commercially available 2% solution (available from Nacalai Tesque, Inc.) is dissolved in ion exchange water to a constant volume of 100 ml. 624 mg of fructosyl valyl histidine is dissolved in ion exchange water to a constant volume of 10 ml. Alternatively, fructosyl glycine or ε-fructosyl lysine of 357 mg or 462 mg, respectively, may be dissolved in ion exchange water to a constant volume of 10 ml to be used as a substrate. Fructosyl valine histidine was prepared as described in Japanese Patent Application Laid-Open (kohyo) No. 2001-95598. Fructosyl glycine and ε-fructosyl lysine were prepared according to a method of Horiuchi et al. (Agric. Biol. Chem., 53, 103-110, 1989; Agric. Biol. Chem., 55, 333-338, 1991). 2.7 ml of Reagent 1, 100 μl of Reagent 2 and 100 μl of enzyme solution are mixed and pre-heated at 30° C. for 5 minutes. Then, 100 μl of Reagent 3 is added and thoroughly mixed to determine absorbance at 510 nm using a spectrophotometer (U-[…], Hitachi, Ltd.). Measurement values indicate changes in the absorbance per minute at 510 nm after 1 to 3 minutes. A control solution was prepared in the same manner as described above except 100 μl ion exchange water was added instead of 100 μl Reagent 3. A standard solution of hydrogen peroxide and ion exchange water were used instead of Reagent 3 and the enzyme solution, respectively, to prepare a graph showing relationship with respect to the level of color. Referring to this graph, micromole of hydrogen peroxide produced per minute at 30° C. is calculated and used as the unit for expressing the activity of the enzyme solution. The presence of action on ε-fructosyl lysine can be determined in the same manner by using Reagent 3 (substrate solution) containing ε-fructosyl lysine substrate instead of fructosyl valyl histidine substrate.

[3] = Km value for fructosyl valyl histidine (Lineweaver-Burk plot); conditions: purified oxidase
Experimental: In the above-described activity assay, the activity of the oxidase was monitored using different concentrations of fructosyl valyl histidine (substrate), and Michaelis constant (Km) was determined from a Lineweaver-Burk plot.
In the above-described activity assay, activity was monitored using different concentrations of fructosyl valyl histidine (substrate), and Michaelis constant (Km) was determined from a Lineweaver-Burk plot.

[4] = relative to activity for ε-fructosyl lysine (100%)
[5] = strain cultured on enzyme inducible medium 1 at 30° C. for 4 days, Tables 1 and 2

Row | Molecule | reaction product identified by HPLC [1] | Activity per medium ([2]; Eupenicillium strains on enzyme induction media 1 at 30° C. for 4 days, Table 3) | Substrate specificity (% relative activity) FVH ([2]; reference substrate set to 100%) | Substrate specificity (% relative activity) FVH [2, 4] | Activity per medium [2, 5] | action on fructosyl valyl histidine and ε-fructosyl lysine (in words) [2] | Km [3]
1 | B1 | a peak was detected only for valyl histidine | 2.8 U/L | 100% | 1023% | 2.8 U/L | acted well on fructosyl valyl histidine but less on ε-fructosyl lysine | 4.25 mM
2 | B2 | – | – | – | 165% | 70.1 U/L | acted well on fructosyl valyl histidine but less on ε-fructosyl lysine | –
